The record followed here is the supplement of paper PMC10567573.

Sequences and labels used below:
B1: KLHL12 (parent)
chain: SMTTPRCYVGATVLRGRLYAIAGY
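Further: lentivirally expressed fusions sorted by FACS into six bins by GFP to DsRed ratio, PSI derived from sequencing read proportions per bin multiplied by bin number.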

The data set covers variants of B1. Description: protein stability index of a GFP-peptide fusion (GPS, HEK-293T) (PSI 1-6); higher = more stable. The settings on record: c terminus: a fixed tail appended.
For the variant SMTTPRCYVGATVLRGSLYAIAGY [R17S], the protein stability index is 3.1.

Take SMTTPRCYVGATVLRGALYAIAGY [R17A]: the protein stability index was 1.73.

On to SMTTPRCYVGATVLRGFLYAIAGY [R17F], for which the protein stability index was found to be 3.17.

In the case of SMTTPRCYVGATVLRGGLYAIAGY [R17G], the protein stability index was 2.27.

Turning to SMTTPRCYVGATVLRGPLYAIAGY [R17P], the protein stability index was 2.42.

SMTTPRCYVGATVLRGTLYAIAGY [R17T]: the protein stability index was determined as 1.92.

Turning to SMTTIRCYVGATVLRGRLYAIAGY [P5I], the protein stability index is 1.79.

SMTTTRCYVGATVLRGRLYAIAGY [P5T]: the protein stability index turned out to be 2.22.

For the variant SMTTRRCYVGATVLRGRLYAIAGY [P5R], the protein stability index turned out to be 4.23.

For HMTTPRCYVGATVLRGRLYAIAGY [S1H], the protein stability index worked out at 1.51.

Regarding MMTTPRCYVGATVLRGRLYAIAGY [S1M], the protein stability index came out at 1.89.

On to CMTTPRCYVGATVLRGRLYAIAGY [S1C], for which the protein stability index amounted to 3.04.

Consider NMTTPRCYVGATVLRGRLYAIAGY [S1N], for which the protein stability index turned out to be 1.9.

Take SMTTPRCYVGATVLRGRAYAIAGY [L18A]: the protein stability index turned out to be 1.49.

Take SMTTPRCYVGATVLRGRKYAIAGY [L18K]: the protein stability index came to 1.75.

Consider SMTTPRCYVGATVLRGRGYAIAGY [L18G], for which the protein stability index came to 1.7.

As for SMTTPRCYVGATVLRGRQYAIAGY [L18Q], the protein stability index stood at 1.81.

In the case of SMTTPRCYVGATVLRGREYAIAGY [L18E], the protein stability index is 1.95.

Consider SMTTPRCYVGATVLRGRHYAIAGY [L18H], for which the protein stability index was determined as 2.1.

For SMTTPRCYVGATVLRGRFYAIAGY [L18F], the protein stability index is 2.67.

In the case of SMTTPRCYVGATVLRGRMYAIAGY [L18M], the protein stability index stood at 1.72.

In the case of SMTTPRCYVGATVLRGRDYAIAGY [L18D], the protein stability index was 1.94.

For SMTTPRCYVGATVLRGRIYAIAGY [L18I], the protein stability index worked out at 1.68.

Regarding SMTTPRCYVGATVLRGRLYMIAGY [A20M], the protein stability index came out at 2.23.

With SMTTPRCYVGATVLRGRLYQIAGY [A20Q], the protein stability index was found to be 2.45.

For SMTTPRCYVGATVLRGRLYVIAGY [A20V], the protein stability index was 3.5.

In the case of SMTTPRCYVGATVLRGRLYPIAGY [A20P], the protein stability index came out at 2.26.

Turning to SMTTPRCYVGATVLRGRLYFIAGY [A20F], the protein stability index was determined as 2.38.

Take SMTTPRCYVGATVLRGRLYIIAGY [A20I]: the protein stability index worked out at 2.3.

In the case of SMTTPRCYVGATVLRGRLYEIAGY [A20E], the protein stability index was found to be 1.76.

Consider SMTTPRCYVGATVLRGRLYAIVGY [A22V], for which the protein stability index came out at 1.94.

Turning to SMTTPRCYVGATVLRGRLYAIEGY [A22E], the protein stability index is 2.3.

Turning to SMTTPRCYVGATVLRGRLYAIKGY [A22K], the protein stability index worked out at 1.52.

Take SMTTPRCYVGATVLRGRLYAIHGY [A22H]: the protein stability index was 2.68.

On to SMTTPRCYVGATVLRGRLYAICGY [A22C], for which the protein stability index worked out at 3.97.

As to SMTTPRCYVGATVLRGRLYAITGY [A22T], the protein stability index came out at 1.69.

In the case of SMTTPRCYVGATVLRGRLYAIRGY [A22R], the protein stability index worked out at 2.86.

Consider SMTTPRCYVGATVLRGRLYAIAGH [Y24H], for which the protein stability index amounted to 1.43.

Turning to SMTTPRCYVGATVLRGRLYAIAGL [Y24L], the protein stability index is 2.46.

As for SMTTPRCYVGATVLRGRLYAIAGA [Y24A], the protein stability index was 1.48.

As to SMTTPRCYVGATVLRGRLYAIAGI [Y24I], the protein stability index was 2.45.

On to SMTTPRCYVGATVLRGRLYAIAGM [Y24M], for which the protein stability index is 3.33.

On to SMTTPRCYVGATVLRGRLYAIAGF [Y24F], for which the protein stability index came out at 3.7.

As to SMTTPRCYVGATVLRGRLYAIAGW [Y24W], the protein stability index came out at 2.45.

For SMTTPRCYVGATVLRGRLYAIAGT [Y24T], the protein stability index stood at 1.82.

Consider SMTTPRCYVGATVLRGRLYAIAGR [Y24R], for which the protein stability index is 1.95.

As to SMTTPRGYVGATVLRGRLYAIAGY [C7G], the protein stability index was found to be 3.82.

As to SMTTPRVYVGATVLRGRLYAIAGY [C7V], the protein stability index was found to be 2.13.

For the variant SMTTPRMYVGATVLRGRLYAIAGY [C7M], the protein stability index is 4.32.

Turning to SMTTPRNYVGATVLRGRLYAIAGY [C7N], the protein stability index amounted to 1.62.

For the variant SMTTPRPYVGATVLRGRLYAIAGY [C7P], the protein stability index was found to be 1.06.

Consider SMTTPRSYVGATVLRGRLYAIAGY [C7S], for which the protein stability index is 3.15.

As for SHTTPRCYVGATVLRGRLYAIAGY [M2H], the protein stability index was found to be 1.93.

As for SRTTPRCYVGATVLRGRLYAIAGY [M2R], the protein stability index was found to be 2.35.

Turning to SSTTPRCYVGATVLRGRLYAIAGY [M2S], the protein stability index turned out to be 3.02.

For the variant SFTTPRCYVGATVLRGRLYAIAGY [M2F], the protein stability index stood at 3.06.

With SNTTPRCYVGATVLRGRLYAIAGY [M2N], the protein stability index amounted to 2.96.

As for SYTTPRCYVGATVLRGRLYAIAGY [M2Y], the protein stability index came to 2.77.

As for SGTTPRCYVGATVLRGRLYAIAGY [M2G], the protein stability index was 2.78.

STTTPRCYVGATVLRGRLYAIAGY [M2T]: the protein stability index is 2.22.

For the variant SMTVPRCYVGATVLRGRLYAIAGY [T4V], the protein stability index was found to be 2.65.

For the variant SMTIPRCYVGATVLRGRLYAIAGY [T4I], the protein stability index worked out at 2.44.

For the variant SMTAPRCYVGATVLRGRLYAIAGY [T4A], the protein stability index stood at 1.

Take SMTNPRCYVGATVLRGRLYAIAGY [T4N]: the protein stability index was 3.79.

Turning to SMTYPRCYVGATVLRGRLYAIAGY [T4Y], the protein stability index was 2.75.

Turning to SMTLPRCYVGATVLRGRLYAIAGY [T4L], the protein stability index was 2.16.

Take SMTFPRCYVGATVLRGRLYAIAGY [T4F]: the protein stability index was 2.12.

On to SMTTPRCYVGFTVLRGRLYAIAGY [A11F], for which the protein stability index was 2.01.

On to SMTTPRCYVGETVLRGRLYAIAGY [A11E], for which the protein stability index came out at 1.5.

For the variant SMTTPRCYVGYTVLRGRLYAIAGY [A11Y], the protein stability index amounted to 2.99.

On to SMTTPRCYVGSTVLRGRLYAIAGY [A11S], for which the protein stability index was determined as 1.04.

With SMTTPRCYVGQTVLRGRLYAIAGY [A11Q], the protein stability index was 2.32.

Take SMTTPRCYVGRTVLRGRLYAIAGY [A11R]: the protein stability index is 3.02.

Regarding SMTTPRCYVGGTVLRGRLYAIAGY [A11G], the protein stability index came out at 1.33.

With SMTTPRCYVGTTVLRGRLYAIAGY [A11T], the protein stability index came to 1.49.

With SMTTPRCWVGATVLRGRLYAIAGY [Y8W], the protein stability index came to 1.82.

In the case of SMTTPRCHVGATVLRGRLYAIAGY [Y8H], the protein stability index was found to be 1.74.

As to SMTTPRCSVGATVLRGRLYAIAGY [Y8S], the protein stability index was determined as 2.77.

In the case of SMTTPRCAVGATVLRGRLYAIAGY [Y8A], the protein stability index is 2.

Regarding SMTTPRCMVGATVLRGRLYAIAGY [Y8M], the protein stability index was found to be 1.57.

As to SMTTPRCKVGATVLRGRLYAIAGY [Y8K], the protein stability index is 2.88.

With SMTTPRCIVGATVLRGRLYAIAGY [Y8I], the protein stability index worked out at 3.73.

With SMTTPRCPVGATVLRGRLYAIAGY [Y8P], the protein stability index worked out at 1.71.

On to SMTTPRCYVGATVLRGRLYAIAMY [G23M], for which the protein stability index worked out at 2.83.

For the variant SMTTPRCYVGATVLRGRLYAIAQY [G23Q], the protein stability index turned out to be 3.57.

For the variant SMTTPRCYVGATVLRGRLYAIASY [G23S], the protein stability index turned out to be 2.08.

As for SMTTPRCYVGATVLRGRLYAIAEY [G23E], the protein stability index came out at 2.19.

As for SMTTPRCYVGATVLRGRLYAIAIY [G23I], the protein stability index was 1.86.

Consider SMTTPRCYVGATVLRGRLYAIADY [G23D], for which the protein stability index worked out at 1.64.

As to SMTTPRCYVGATVLRGRLYAIAAY [G23A], the protein stability index turned out to be 3.75.

Turning to SMTTPRCYVGATVLRGRLYAIAHY [G23H], the protein stability index stood at 3.9.

Regarding SMTTPRCYVGATVLRGRLYAIAKY [G23K], the protein stability index was found to be 1.35.

Consider SMTTPRCYVGATVLRGRLYAIANY [G23N], for which the protein stability index came to 1.78.

Turning to SMTTPRCYVGATVLRGRLYAIAFY [G23F], the protein stability index came out at 2.6.
